Data: patent US20190367627A1 (AGENUS, published 2019)

T1: human OX40 (human, UniProt P43489 29-277)
T1 construct: Recombinantly expressed on transduced Jurkat cells; also called OX40 receptor; huOX40
T1 sequence: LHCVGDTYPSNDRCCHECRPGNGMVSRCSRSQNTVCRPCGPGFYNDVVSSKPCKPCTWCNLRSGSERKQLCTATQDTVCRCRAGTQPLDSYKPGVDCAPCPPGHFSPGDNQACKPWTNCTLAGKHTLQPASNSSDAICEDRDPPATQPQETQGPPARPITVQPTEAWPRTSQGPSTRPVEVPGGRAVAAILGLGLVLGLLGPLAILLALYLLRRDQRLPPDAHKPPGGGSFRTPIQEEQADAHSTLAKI

B1: pab1949 (antibody, human IgG1, kappa, V domains shown)
VH: EVQLVESGGGLVQPGGSLKLSCAASGFTFSGSAMHWVRQASGKGLEWVGRIRSKANSYATAYAASVKGRFTISRDDSKNTAYLQMNSLKTEDTAVYYCTSGIYDSSGYDYWGQGTLVTVSS
VL: not shown
notes: also called pab1949 (IgG1)
B2: pab2049 (antibody, human IgG1, V domains shown)
VH: EVQLVESGGGLVQPGGSLKLSCAASGFTFSGSAMHWVRQASGKGLEWVGRIRSKANSYATAYAASVKGRFTISRDDSKNTAYLQMNSLKTEDTAVYYCTSGIYDSSGYDYWGQGTLVTVSS
VL: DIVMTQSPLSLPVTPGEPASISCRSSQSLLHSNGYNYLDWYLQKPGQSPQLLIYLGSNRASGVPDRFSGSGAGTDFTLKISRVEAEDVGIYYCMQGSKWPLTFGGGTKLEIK
notes: its constant region is not tied to this antibody; also called pab2049 (IgG1)
B3: pab1949 N56Y (antibody, IgG1, V domains shown)
VH: EVQLVESGGGLVQPGGSLKLSCAASGFTFSGSAMHWVRQASGKGLEWVGRIRSKAYSYATAYAASVKGRFTISRDDSKNTAYLQMNSLKTEDTAVYYCTSGIYDSSGYDYWGQGTLVTVSS
VL: not shown
B4: pab1949 Q98K (antibody, V domains shown)
VH: EVQLVESGGGLVQPGGSLKLSCAASGFTFSGSAMHWVRQASGKGLEWVGRIRSKANSYATAYAASVKGRFTISRDDSKNTAYLQMNSLKTEDTAVYYCTSGIYDSSGYDYWGQGTLVTVSS
VL: not shown
notes: Only variable domains are tied to this antibody
B5: pab1949 Y103A (antibody, IgG1, V domains shown)
VH: EVQLVESGGGLVQPGGSLKLSCAASGFTFSGSAMHWVRQASGKGLEWVGRIRSKANSYATAYAASVKGRFTISRDDSKNTAYLQMNSLKTEDTAVYYCTSGIADSSGYDYWGQGTLVTVSS
VL: not shown
B6: pab1949 D109A (antibody, IgG1, V domains shown)
VH: EVQLVESGGGLVQPGGSLKLSCAASGFTFSGSAMHWVRQASGKGLEWVGRIRSKANSYATAYAASVKGRFTISRDDSKNTAYLQMNSLKTEDTAVYYCTSGIYDSSGYAYWGQGTLVTVSS
VL: not shown
B7: pab1949 A96G/L97S (antibody, IgG1, V domains shown)
VH: EVQLVESGGGLVQPGGSLKLSCAASGFTFSGSAMHWVRQASGKGLEWVGRIRSKANSYATAYAASVKGRFTISRDDSKNTAYLQMNSLKTEDTAVYYCTSGIYDSSGYDYWGQGTLVTVSS
VL: not shown
notes: as for B4
B8: pab1949 Y108A (antibody, IgG1, V domains shown)
VH: EVQLVESGGGLVQPGGSLKLSCAASGFTFSGSAMHWVRQASGKGLEWVGRIRSKANSYATAYAASVKGRFTISRDDSKNTAYLQMNSLKTEDTAVYYCTSGIYDSSGADYWGQGTLVTVSS
VL: not shown
B9: pab1949 D104A (antibody, IgG1, V domains shown)
VH: EVQLVESGGGLVQPGGSLKLSCAASGFTFSGSAMHWVRQASGKGLEWVGRIRSKANSYATAYAASVKGRFTISRDDSKNTAYLQMNSLKTEDTAVYYCTSGIYASSGYDYWGQGTLVTVSS
VL: not shown
B10: pab1949 T99W (antibody, V domains shown)
VH: EVQLVESGGGLVQPGGSLKLSCAASGFTFSGSAMHWVRQASGKGLEWVGRIRSKANSYATAYAASVKGRFTISRDDSKNTAYLQMNSLKTEDTAVYYCTSGIYDSSGYDYWGQGTLVTVSS
VL: not shown
notes: as for B4

The binders below were run against T1, human OX40 (assay: flow cytometry on Jurkat cells expressing human OX40).
Description: FIGS. 1A, 1B, 1C, 1D, 1E, IF, 1G, 1H, 1I, and 1J are a set of flow cytometry plots showing the binding of anti-OX40 antibodies or an isotype control antibody to Jurkat cells expressing human OX40. The anti-OX40 antibodies tested include pab1949, pab2049, heavy chain variants of pab1949 (pab1949 N56Y, pab1949 Y103A, pab1949 D104A, pab1949 Y108A, and pab1949 D109A), and light chain variants of pab1949 (pab1949 A96G/L97S, pab1949 Q98K, and pab1949 T99W). All the anti-OX40 antibodies tested are IgG₁ antibodies. MFI values are plotted over a range of antibody concentrations.
The binding characteristics of the anti-OX40 antibodies to cells expressing human OX40 were analyzed by flow cytometry. Briefly, Jurkat cells were transduced to recombinantly express human OX40. Stable clones were generated via single-cell sorting (FACS ARIA Fusion). OX40 expression was verified by flow cytometry using positive control antibodies. For binding analysis, OX40-expressing Jurkat cells were incubated with anti-OX40 antibodies (12-point dose titration, 10 μg/ml to 0.00005 μg/ml) for 30 minutes at 4° C. The samples were washed twice and then incubated with FITC-conjugated mouse anti-human kappa detection antibody (Life Technologies, Catalog number: HP6062) for 30 minutes at 4° C. The samples were then washed twice and analyzed using the LSRFortessa flow cytometer (BD Biosciences). The flow cytometry plots were analyzed using a combination of FACS DIVA and WEHI Weasel software.

Binding result, binds:
B1
B2
B3
B4
B5
B6
B7
B8
B9
B10
